For the test, the target named is human insulin receptor overexpressed on Rat-1 cells (Rat-1/hIR) (human) (UniProt P06213).

insulin from bovine pancreas (ligand) registered an EC50 of IR Y1150 phosphorylation in Rat-1/hIR cells, various concentrations of insulin for 5 min, western blot, four-parameter logistic fit of 86.4 nM.
